Measured values reported in patent EP4803139A2.

Legend:
[1] = molecular target: human PCSK9 (proprotein convertase subtilisin/kexin type 9), wild type (human) (UniProt Q8NBP7); assay: BIAcore solution equilibrium assay, 21B12 immobilised on CM5, one-site fit in KinExA Pro
[2] = molecular target: human PCSK9 (proprotein convertase subtilisin/kexin type 9), wild type (human) (UniProt Q8NBP7); assay: BIAcore SPR, human PCSK9, pH 6.0
[3] = molecular target: human PCSK9 (proprotein convertase subtilisin/kexin type 9), wild type (human) (UniProt Q8NBP7); assay: BIAcore SPR, human PCSK9, pH 7.4
[4] = molecular target: human PCSK9 (proprotein convertase subtilisin/kexin type 9), wild type (human) (UniProt Q8NBP7); assay: BIAcore SPR, antibody amine-coupled to CM5, PCSK9 as analyte, pH 7.4
[5] = molecular target: human PCSK9 (proprotein convertase subtilisin/kexin type 9), wild type (human) (UniProt Q8NBP7); assay: KinExA solution equilibrium, PCSK9-coated beads

| Kd [1] [nM] | Kd [2] [nM] | koff [2] [s⁻¹] | kon [2] [M⁻¹ s⁻¹] | Kd [3] [nM] | koff [3] [s⁻¹] | kon [3] [M⁻¹ s⁻¹] | Kd [4] [nM] | Kd [5] [nM] | Binder |
| --- | --- | --- | --- | --- | --- | --- | --- | --- | --- |
| 0.015 | 0.0073 | 1.68e-05 | 2.29e+06 | 0.19 | 6.63e-06 | 34900 | 0.19 | – | 21B12, anti-PCSK9 huIgG4 (antibody, V domains shown) VH: QVQLVQSGAEVKKPGASVKVSCKASGYTLTSYGISWVRQAPGQGLEWMGWVSFYNGNTNYAQKLQGRGTMTTDPSTSTAYMELRSLRSDDTAVYYCARGYGMDVWGQGTTVTVSS VL: QSALTQPASVSGSPGQSITISCTGTSSDVGGYNSVSWYQQHPGKAPKLMIYEVSNRPSGVSNRFSGSKSGNTASLTISGLQAEDEADYYCNSYTSTSMVFGGGTKLTVLQ |
| – | 0.029 | 7.01e-05 | 2.39e+06 | 0.47 | 4.98e-05 | 106000 | 0.47 | 0.015 | 16F12, anti-PCSK9 huIgG4 (antibody, V domains shown) VH: QVHLVESGGGVVQPGRSLRLSCAASGFTFNSFGMHWVRQAPGKGLEWVALIWSDGSDEYYADSVKGRFTISRDNSKNTLYLQMNSLRAEDTAVYYCARAIAALYYYYGMDVWGQGTTVTVSS VL: QSVLTQPPSVSAAPGQKVTISCSGSSSNIGNNFVSWYQQLPGTAPKLLIYDYNKRPSGIPDRFSGSKSGTSATLGITGLQTGDEADYYCGTWDSSLSAYVFGTGTRVTVLQ |
